Results on 4 molecules are retold here after US20240270846A1 (published 2024).

B1: CE115HA000 K64Q one-arm antibody (antibody, human IgG1, kappa, L234A L235A, N297A, name in Kabat numbering)
heavy: QVQLVESGGGVVQPGRSLRLSCAASGFTFSNAWMHWVRQAPGKGLEWVAQIKAKSNNYATYYAESVQGRFTISRDDSKNSLYLQMNSLKTEDTAVYYCRYVHYGAYYGVDAWGQGTTVTVSSASTKGPSVFPLAPSSKSTSGGTAALGCLVKDYFPEPVTVSWNSGALTSGVHTFPAVLQSSGLYSLSSVVTVPSSSLGTQTYICNVNHKPSNTKVDKKVEPKSCDKTHTCPPCPAPEAAGGPSVFLFPPKPKDTLMISRTPEVTCVVVDVSHEDPEVKFNWYVDGVEVHNAKTKPREEQYASTYRVVSVLTVLHQDWLNGKEYKCKVSNKALPAPIEKTISKAKGQPREPQVYTLPPSRCELTKNQVSLSCAVKGFYPSDIAVEWESNGQPENNYKTTPPVLDSDGSFFLVSKLTVDKSRWQQGNVFSCSVMHEALHNHYTQKSLSLSPDYKDDDDK
chain: EPKSSDKTHTCPPCPAPELLGGPSVFLFPPKPKDTLMISRTPEVTCVVVDVSHEDPEVKFNWYVDGVEVHNAKTKPREEQYNSTYRVVSVLTVLHQDWLNGKEYKCKVSNKALPAPIEKTISKAKGQPREPQVCTLPPSRDELTKNQVSLWCLVKGFYPSDIAVEWESNGQPENNYKTTPPVLDSDGSFFLYSKLTVDKSRWQQGNVFSCSVMHEALHNRYTQKSLSLSP
light: DIVMTQSPLSLPVTPGEPASISCRSSQSLVHSNRNTYLHWYQQKPGQAPRLLIYKVSNRFSGVPDRFSGSGSGTDFTLKISRVEAEDVGVYYCGQGTQVPYTFGQGTKLEIKRTVAAPSVFIFPPSDEQLKSGTASVVCLLNNFYPREAKVQWKVDNALQSGNSQESVTEQDSKDSTYSLSSTLTLSKADYEKHKVYACEVTHQGLSSPVTKSFNRGEC
notes: one-arm antibody (one Fab)
B2: CE115HA000 K75R one-arm antibody (antibody, human IgG1, kappa, L234A L235A, N297A, name in Kabat numbering)
heavy: QVQLVESGGGVVQPGRSLRLSCAASGFTFSNAWMHWVRQAPGKGLEWVAQIKAKSNNYATYYAESVKGRFTISRDDSRNSLYLQMNSLKTEDTAVYYCRYVHYGAYYGVDAWGQGTTVTVSSASTKGPSVFPLAPSSKSTSGGTAALGCLVKDYFPEPVTVSWNSGALTSGVHTFPAVLQSSGLYSLSSVVTVPSSSLGTQTYICNVNHKPSNTKVDKKVEPKSCDKTHTCPPCPAPEAAGGPSVFLFPPKPKDTLMISRTPEVTCVVVDVSHEDPEVKFNWYVDGVEVHNAKTKPREEQYASTYRVVSVLTVLHQDWLNGKEYKCKVSNKALPAPIEKTISKAKGQPREPQVYTLPPSRCELTKNQVSLSCAVKGFYPSDIAVEWESNGQPENNYKTTPPVLDSDGSFFLVSKLTVDKSRWQQGNVFSCSVMHEALHNHYTQKSLSLSPDYKDDDDK
chain: EPKSSDKTHTCPPCPAPELLGGPSVFLFPPKPKDTLMISRTPEVTCVVVDVSHEDPEVKFNWYVDGVEVHNAKTKPREEQYNSTYRVVSVLTVLHQDWLNGKEYKCKVSNKALPAPIEKTISKAKGQPREPQVCTLPPSRDELTKNQVSLWCLVKGFYPSDIAVEWESNGQPENNYKTTPPVLDSDGSFFLYSKLTVDKSRWQQGNVFSCSVMHEALHNRYTQKSLSLSP
light: DIVMTQSPLSLPVTPGEPASISCRSSQSLVHSNRNTYLHWYQQKPGQAPRLLIYKVSNRFSGVPDRFSGSGSGTDFTLKISRVEAEDVGVYYCGQGTQVPYTFGQGTKLEIKRTVAAPSVFIFPPSDEQLKSGTASVVCLLNNFYPREAKVQWKVDNALQSGNSQESVTEQDSKDSTYSLSSTLTLSKADYEKHKVYACEVTHQGLSSPVTKSFNRGEC
notes: one-arm antibody (one Fab)
B3: CE115HA000 K75T one-arm antibody (antibody, human IgG1, kappa, L234A L235A, N297A, name in Kabat numbering)
heavy: QVQLVESGGGVVQPGRSLRLSCAASGFTFSNAWMHWVRQAPGKGLEWVAQIKAKSNNYATYYAESVKGRFTISRDDSTNSLYLQMNSLKTEDTAVYYCRYVHYGAYYGVDAWGQGTTVTVSSASTKGPSVFPLAPSSKSTSGGTAALGCLVKDYFPEPVTVSWNSGALTSGVHTFPAVLQSSGLYSLSSVVTVPSSSLGTQTYICNVNHKPSNTKVDKKVEPKSCDKTHTCPPCPAPEAAGGPSVFLFPPKPKDTLMISRTPEVTCVVVDVSHEDPEVKFNWYVDGVEVHNAKTKPREEQYASTYRVVSVLTVLHQDWLNGKEYKCKVSNKALPAPIEKTISKAKGQPREPQVYTLPPSRCELTKNQVSLSCAVKGFYPSDIAVEWESNGQPENNYKTTPPVLDSDGSFFLVSKLTVDKSRWQQGNVFSCSVMHEALHNHYTQKSLSLSPDYKDDDDK
chain: EPKSSDKTHTCPPCPAPELLGGPSVFLFPPKPKDTLMISRTPEVTCVVVDVSHEDPEVKFNWYVDGVEVHNAKTKPREEQYNSTYRVVSVLTVLHQDWLNGKEYKCKVSNKALPAPIEKTISKAKGQPREPQVCTLPPSRDELTKNQVSLWCLVKGFYPSDIAVEWESNGQPENNYKTTPPVLDSDGSFFLYSKLTVDKSRWQQGNVFSCSVMHEALHNRYTQKSLSLSP
light: DIVMTQSPLSLPVTPGEPASISCRSSQSLVHSNRNTYLHWYQQKPGQAPRLLIYKVSNRFSGVPDRFSGSGSGTDFTLKISRVEAEDVGVYYCGQGTQVPYTFGQGTKLEIKRTVAAPSVFIFPPSDEQLKSGTASVVCLLNNFYPREAKVQWKVDNALQSGNSQESVTEQDSKDSTYSLSSTLTLSKADYEKHKVYACEVTHQGLSSPVTKSFNRGEC
notes: one-arm antibody (one Fab)
B4: CE115HA000 K64S one-arm antibody (antibody, human IgG1, kappa, L234A L235A, N297A, name in Kabat numbering)
heavy: QVQLVESGGGVVQPGRSLRLSCAASGFTFSNAWMHWVRQAPGKGLEWVAQIKAKSNNYATYYAESVSGRFTISRDDSKNSLYLQMNSLKTEDTAVYYCRYVHYGAYYGVDAWGQGTTVTVSSASTKGPSVFPLAPSSKSTSGGTAALGCLVKDYFPEPVTVSWNSGALTSGVHTFPAVLQSSGLYSLSSVVTVPSSSLGTQTYICNVNHKPSNTKVDKKVEPKSCDKTHTCPPCPAPEAAGGPSVFLFPPKPKDTLMISRTPEVTCVVVDVSHEDPEVKFNWYVDGVEVHNAKTKPREEQYASTYRVVSVLTVLHQDWLNGKEYKCKVSNKALPAPIEKTISKAKGQPREPQVYTLPPSRCELTKNQVSLSCAVKGFYPSDIAVEWESNGQPENNYKTTPPVLDSDGSFFLVSKLTVDKSRWQQGNVFSCSVMHEALHNHYTQKSLSLSPDYKDDDDK
chain: EPKSSDKTHTCPPCPAPELLGGPSVFLFPPKPKDTLMISRTPEVTCVVVDVSHEDPEVKFNWYVDGVEVHNAKTKPREEQYNSTYRVVSVLTVLHQDWLNGKEYKCKVSNKALPAPIEKTISKAKGQPREPQVCTLPPSRDELTKNQVSLWCLVKGFYPSDIAVEWESNGQPENNYKTTPPVLDSDGSFFLYSKLTVDKSRWQQGNVFSCSVMHEALHNRYTQKSLSLSP
light: DIVMTQSPLSLPVTPGEPASISCRSSQSLVHSNRNTYLHWYQQKPGQAPRLLIYKVSNRFSGVPDRFSGSGSGTDFTLKISRVEAEDVGVYYCGQGTQVPYTFGQGTKLEIKRTVAAPSVFIFPPSDEQLKSGTASVVCLLNNFYPREAKVQWKVDNALQSGNSQESVTEQDSKDSTYSLSSTLTLSKADYEKHKVYACEVTHQGLSSPVTKSFNRGEC
notes: one-arm antibody (one Fab)

The target in the experiment is T1, CD3 epsilon homodimer protein (UniProt P07766 23-126).
T1 construct: Immobilized on Sensor chip CM4 by amine coupling; construct not described; also called CD3 (CD3 epsilon)
T1 sequence (P07766 23-126): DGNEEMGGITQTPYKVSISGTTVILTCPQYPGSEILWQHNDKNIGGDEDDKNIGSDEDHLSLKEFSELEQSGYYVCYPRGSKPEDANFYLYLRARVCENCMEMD
Put plainly: SPR Biacore T200, CD3 epsilon homodimer on CM4 chip, antibody as analyte.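 Also: Amine-coupled CD3 epsilon homodimer, run at 25 °C in HBS-EP+ buffer, ratio is bound amount of each single-residue H chain variant over that of the parent antibody.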 In general terms: Surface plasmon resonance follows binding to a sensor surface in real time, without labels.
B1: the “ratio of amounts bound (Y/X vs CE115HA000)” value (“ratio of amounts bound” for short) is 0.89.

Regarding B2, the “ratio of amounts bound” value stood at 1.01.

On to B3, for which the “ratio of amounts bound” value is 0.84.

In the case of B4, the “ratio of amounts bound” value worked out at 0.84.
